Measurements as given in patent US20020142964A1 (published 2002).

T1: human G-CSF receptor (human, UniProt Q99062 25-836)
T1 sequence (looked up): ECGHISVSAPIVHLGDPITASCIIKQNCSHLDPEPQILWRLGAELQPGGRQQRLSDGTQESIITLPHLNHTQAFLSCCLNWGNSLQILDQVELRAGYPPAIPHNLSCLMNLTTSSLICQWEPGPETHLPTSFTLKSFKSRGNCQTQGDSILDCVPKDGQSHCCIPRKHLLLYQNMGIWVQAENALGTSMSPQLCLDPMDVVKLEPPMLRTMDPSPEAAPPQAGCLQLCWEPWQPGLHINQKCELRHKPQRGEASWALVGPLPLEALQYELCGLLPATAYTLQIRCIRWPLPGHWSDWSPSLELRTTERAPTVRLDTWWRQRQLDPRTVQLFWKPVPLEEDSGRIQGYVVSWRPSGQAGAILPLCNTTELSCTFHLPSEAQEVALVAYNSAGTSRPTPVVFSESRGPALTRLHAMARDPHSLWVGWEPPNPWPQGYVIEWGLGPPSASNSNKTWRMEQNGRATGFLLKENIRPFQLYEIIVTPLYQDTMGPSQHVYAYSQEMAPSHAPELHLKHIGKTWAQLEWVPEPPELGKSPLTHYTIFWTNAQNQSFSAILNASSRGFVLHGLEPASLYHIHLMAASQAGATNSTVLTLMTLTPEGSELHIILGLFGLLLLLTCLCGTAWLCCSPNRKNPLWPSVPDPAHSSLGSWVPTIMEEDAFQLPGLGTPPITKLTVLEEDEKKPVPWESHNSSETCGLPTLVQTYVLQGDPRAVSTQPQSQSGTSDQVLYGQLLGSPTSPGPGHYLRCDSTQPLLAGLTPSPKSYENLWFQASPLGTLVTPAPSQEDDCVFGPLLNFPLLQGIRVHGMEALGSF

B1: non-conjugated hG-CSF (Neupogen®) (ligand)
chain: TPLGPASSLPQSFLLKCLEQVRKIQGDGAALQEKLCATYKLCHPEELVLLGHSLGIPWAPLSSCPSQALQLAGCLSQLHSGLFLYQGLLQALEGISPELGPTLDTLQLDVADFATTIWQQMEELGMAPALQPTQGAMPAFASAFQRRAGGVLVASHLQSFLEVSYRVLRHLAQP
B2: Single-chain G-CSF dimer (K16R K34R K40R)copy 1,2 (ligand)
chain: TPLGPASSLPQSFLLRCLEQVRKIQGDGAALQERLCATYRLCHPEELVLLGHSLGIPWAPLSSCPSQALQLAGCLSQLHSGLFLYQGLLQALEGISPELGPTLDTLQLDVADFATTIWQQMEELGMAPALQPTQGAMPAFASAFQRRAGGVLVASHLQSFLEVSYRVLRHLAQPTPLGPASSLPQSFLLRCLEQVRKIQGDGAALQERLCATYRLCHPEELVLLGHSLGIPWAPLSSCPSQALQLAGCLSQLHSGLFLYQGLLQALEGISPELGPTLDTLQLDVADFATTIWQQMEELGMAPALQPTQGAMPAFASAFQRRAGGVLVASHLQSFLEVSYRVLRHLAQP
B3: Single-chain G-CSF dimer (ligand)
chain: TPLGPASSLPQSFLLKCLEQVRKIQGDGAALQEKLCATYKLCHPEELVLLGHSLGIPWAPLSSCPSQALQLAGCLSQLHSGLFLYQGLLQALEGISPELGPTLDTLQLDVADFATTIWQQMEELGMAPALQPTQGAMPAFASAFQRRAGGVLVASHLQSFLEVSYRVLRHLAQPTPLGPASSLPQSFLLKCLEQVRKIQGDGAALQEKLCATYKLCHPEELVLLGHSLGIPWAPLSSCPSQALQLAGCLSQLHSGLFLYQGLLQALEGISPELGPTLDTLQLDVADFATTIWQQMEELGMAPALQPTQGAMPAFASAFQRRAGGVLVASHLQSFLEVSYRVLRHLAQP
B4: Single-chain G-CSF dimer (K16R K34R)copy 1,2 PEG5000 (ligand)
chain: TPLGPASSLPQSFLLRCLEQVRKIQGDGAALQERLCATYKLCHPEELVLLGHSLGIPWAPLSSCPSQALQLAGCLSQLHSGLFLYQGLLQALEGISPELGPTLDTLQLDVADFATTIWQQMEELGMAPALQPTQGAMPAFASAFQRRAGGVLVASHLQSFLEVSYRVLRHLAQPTPLGPASSLPQSFLLRCLEQVRKIQGDGAALQERLCATYKLCHPEELVLLGHSLGIPWAPLSSCPSQALQLAGCLSQLHSGLFLYQGLLQALEGISPELGPTLDTLQLDVADFATTIWQQMEELGMAPALQPTQGAMPAFASAFQRRAGGVLVASHLQSFLEVSYRVLRHLAQP
modifications: SPA-PEG 5000 covalently linked to the available PEGylation sites; number and positions not stated
B5: Single-chain G-CSF dimer (K16R K34R)copy 1,2 (ligand)
chain: TPLGPASSLPQSFLLRCLEQVRKIQGDGAALQERLCATYKLCHPEELVLLGHSLGIPWAPLSSCPSQALQLAGCLSQLHSGLFLYQGLLQALEGISPELGPTLDTLQLDVADFATTIWQQMEELGMAPALQPTQGAMPAFASAFQRRAGGVLVASHLQSFLEVSYRVLRHLAQPTPLGPASSLPQSFLLRCLEQVRKIQGDGAALQERLCATYKLCHPEELVLLGHSLGIPWAPLSSCPSQALQLAGCLSQLHSGLFLYQGLLQALEGISPELGPTLDTLQLDVADFATTIWQQMEELGMAPALQPTQGAMPAFASAFQRRAGGVLVASHLQSFLEVSYRVLRHLAQP
B6: Single-chain G-CSF dimer (K16R)copy 1,2 (ligand)
chain: TPLGPASSLPQSFLLRCLEQVRKIQGDGAALQEKLCATYKLCHPEELVLLGHSLGIPWAPLSSCPSQALQLAGCLSQLHSGLFLYQGLLQALEGISPELGPTLDTLQLDVADFATTIWQQMEELGMAPALQPTQGAMPAFASAFQRRAGGVLVASHLQSFLEVSYRVLRHLAQPTPLGPASSLPQSFLLRCLEQVRKIQGDGAALQEKLCATYKLCHPEELVLLGHSLGIPWAPLSSCPSQALQLAGCLSQLHSGLFLYQGLLQALEGISPELGPTLDTLQLDVADFATTIWQQMEELGMAPALQPTQGAMPAFASAFQRRAGGVLVASHLQSFLEVSYRVLRHLAQP
B7: Single-chain G-CSF dimer (K16R K34R)copy 1,2 PEG12000 (ligand)
chain: TPLGPASSLPQSFLLRCLEQVRKIQGDGAALQERLCATYKLCHPEELVLLGHSLGIPWAPLSSCPSQALQLAGCLSQLHSGLFLYQGLLQALEGISPELGPTLDTLQLDVADFATTIWQQMEELGMAPALQPTQGAMPAFASAFQRRAGGVLVASHLQSFLEVSYRVLRHLAQPTPLGPASSLPQSFLLRCLEQVRKIQGDGAALQERLCATYKLCHPEELVLLGHSLGIPWAPLSSCPSQALQLAGCLSQLHSGLFLYQGLLQALEGISPELGPTLDTLQLDVADFATTIWQQMEELGMAPALQPTQGAMPAFASAFQRRAGGVLVASHLQSFLEVSYRVLRHLAQP
modifications: SPA-PEG 12000 covalently linked to the available PEGylation sites; number and positions not stated
B8: Single-chain G-CSF dimer PEG20000 (ligand)
chain: TPLGPASSLPQSFLLKCLEQVRKIQGDGAALQEKLCATYKLCHPEELVLLGHSLGIPWAPLSSCPSQALQLAGCLSQLHSGLFLYQGLLQALEGISPELGPTLDTLQLDVADFATTIWQQMEELGMAPALQPTQGAMPAFASAFQRRAGGVLVASHLQSFLEVSYRVLRHLAQPTPLGPASSLPQSFLLKCLEQVRKIQGDGAALQEKLCATYKLCHPEELVLLGHSLGIPWAPLSSCPSQALQLAGCLSQLHSGLFLYQGLLQALEGISPELGPTLDTLQLDVADFATTIWQQMEELGMAPALQPTQGAMPAFASAFQRRAGGVLVASHLQSFLEVSYRVLRHLAQP
modifications: SPA-PEG 20000 covalently linked to the available PEGylation sites; number and positions not stated
B9: Single-chain G-CSF dimer PEG5000 (ligand)
chain: TPLGPASSLPQSFLLKCLEQVRKIQGDGAALQEKLCATYKLCHPEELVLLGHSLGIPWAPLSSCPSQALQLAGCLSQLHSGLFLYQGLLQALEGISPELGPTLDTLQLDVADFATTIWQQMEELGMAPALQPTQGAMPAFASAFQRRAGGVLVASHLQSFLEVSYRVLRHLAQPTPLGPASSLPQSFLLKCLEQVRKIQGDGAALQEKLCATYKLCHPEELVLLGHSLGIPWAPLSSCPSQALQLAGCLSQLHSGLFLYQGLLQALEGISPELGPTLDTLQLDVADFATTIWQQMEELGMAPALQPTQGAMPAFASAFQRRAGGVLVASHLQSFLEVSYRVLRHLAQP
modifications: SPA-PEG 5000 covalently linked to the available PEGylation sites; number and positions not stated
B10: Single-chain G-CSF dimer PEG12000 (ligand)
chain: TPLGPASSLPQSFLLKCLEQVRKIQGDGAALQEKLCATYKLCHPEELVLLGHSLGIPWAPLSSCPSQALQLAGCLSQLHSGLFLYQGLLQALEGISPELGPTLDTLQLDVADFATTIWQQMEELGMAPALQPTQGAMPAFASAFQRRAGGVLVASHLQSFLEVSYRVLRHLAQPTPLGPASSLPQSFLLKCLEQVRKIQGDGAALQEKLCATYKLCHPEELVLLGHSLGIPWAPLSSCPSQALQLAGCLSQLHSGLFLYQGLLQALEGISPELGPTLDTLQLDVADFATTIWQQMEELGMAPALQPTQGAMPAFASAFQRRAGGVLVASHLQSFLEVSYRVLRHLAQP
modifications: SPA-PEG 12000 covalently linked to the available PEGylation sites; number and positions not stated
B11: Single-chain G-CSF dimer (K16R K34R K40R)copy 1,2 PEG5000 (ligand)
chain: TPLGPASSLPQSFLLRCLEQVRKIQGDGAALQERLCATYRLCHPEELVLLGHSLGIPWAPLSSCPSQALQLAGCLSQLHSGLFLYQGLLQALEGISPELGPTLDTLQLDVADFATTIWQQMEELGMAPALQPTQGAMPAFASAFQRRAGGVLVASHLQSFLEVSYRVLRHLAQPTPLGPASSLPQSFLLRCLEQVRKIQGDGAALQERLCATYRLCHPEELVLLGHSLGIPWAPLSSCPSQALQLAGCLSQLHSGLFLYQGLLQALEGISPELGPTLDTLQLDVADFATTIWQQMEELGMAPALQPTQGAMPAFASAFQRRAGGVLVASHLQSFLEVSYRVLRHLAQP
modifications: SPA-PEG 5000 covalently linked to the available PEGylation sites; number and positions not stated
B12: Single-chain G-CSF dimer (K16R K34R K40R)copy 1,2 PEG12000 (ligand)
chain: TPLGPASSLPQSFLLRCLEQVRKIQGDGAALQERLCATYRLCHPEELVLLGHSLGIPWAPLSSCPSQALQLAGCLSQLHSGLFLYQGLLQALEGISPELGPTLDTLQLDVADFATTIWQQMEELGMAPALQPTQGAMPAFASAFQRRAGGVLVASHLQSFLEVSYRVLRHLAQPTPLGPASSLPQSFLLRCLEQVRKIQGDGAALQERLCATYRLCHPEELVLLGHSLGIPWAPLSSCPSQALQLAGCLSQLHSGLFLYQGLLQALEGISPELGPTLDTLQLDVADFATTIWQQMEELGMAPALQPTQGAMPAFASAFQRRAGGVLVASHLQSFLEVSYRVLRHLAQP
modifications: SPA-PEG 12000 covalently linked to the available PEGylation sites; number and positions not stated

Columns and labels:
[1] = biological target: T1, human G-CSF receptor; experiment: cell-based or functional assay
[2] = biological target: T1, human G-CSF receptor; experiment: cell-based or functional assay; remark: listed apart in the source

Binder | EC50, luciferase reporter assay in BaF3/hGCSF-R/pfos-lux cells (Primary assay 2) [1] [nM] | Specific activity (% of Neupogen®), from EC50 in luciferase reporter assay [2]
B1 | 0.03 | 
B2 |  | 300 % of Neupogen®
B3 |  | 214 % of Neupogen®
B4 |  | 19 % of Neupogen®
B5 |  | 329 % of Neupogen®
B6 |  | 135 % of Neupogen®
B7 |  | 8 % of Neupogen®
B8 |  | 25 % of Neupogen®
B9 |  | 120 % of Neupogen®
B10 |  | 62 % of Neupogen®
B11 |  | 10 % of Neupogen®
B12 |  | 10 % of Neupogen®
